{
  "source": "the DeepSol protein solubility set",
  "data": [
    {"assay": "soluble on expression in E. coli; label from the status in PepcDB or PDB records", "values": [
      {"sequence": "MNSSKAGGCHGINDIKVKTAKPKDKPYKLADGGGMYLLINTNGSKYWRMKYRFAGKEKMLSIGVYPDVTLADAREKRSEARKLLAAGGDPGEAKKEEKIAQQMSLKNTFEAIAREWHQLKADRWSLRYRDEIIDTFEKDIFPYIGKRPIAEIKPMKLLEALRKMEKRGALEKMRKVRQRCGEVFRYAIVTGRADYNPAPDLASALATPKKVHFPFLTANELPHFLNDLAGYTGSIITKTATQIIMLTGVRTQELRFARWEDIDFETKLWEIPAEVMKMKRPHIVPLSEQVIMLFKQLEPISKHHPLVFIGRNDPRKPISKESINQVIELLGYKGRLTGHGFRHTMSTILHEQGFNSAWIEMQLAHVDKNSIRGTYNHALYLDGRREMMQWYADYIDSLSSRES", "soluble on expression in E. coli": "not soluble"},
      {"sequence": "RPDPFPQNGLPAARLAMVAREMGHIAPFVRAVYAAQFGRGLVISDPQVLAECWAEAGLPPEAMEQAKSPEIKAALFAQGERAAALDLFGAPSFVVGEEVFWGDDRLDQALALAAQS", "soluble on expression in E. coli": "not soluble"},
      {"sequence": "MKLDDLNLFRQVVENGSYTAASRKTLIPVATITRRIQALEDSLDIRLLNRHARKLSLTEAGQKFYDECAPILATLVNTSEYLGEECRGAAGKLKIAAPSNLTKRMIQPILNKFMLLYPDISINLTMSNQPEQLDPTDWDIIFRVGKQRDSSLIARQIGSLEDILVASPSYLEKNSEPTHAQELHKHSLLKGNPLMRWRLTNKDGESVTITDAGRFEASELNVIRMACSNGLGITLMPDIMISQYLEEGSLIRVLSDWSANPRDIYMIYNYKDHQPEKVRLFIDFVSNHIPD", "soluble on expression in E. coli": "not soluble"},
      {"sequence": "GPGSMLRPTCPVAKNLTSFATKGTMRGGIPRIYYTWMKPGSATRRRFEKMRNPFVNLETGTSLYFRDTRDSAEAVAHAADSKGLKGMDNGVDLYNEYKIVPDLYPEGFQWKHKLNTEYNQWRSNTWLTPELIPQEHRGRFLCNFQLNIVAYDMRVVKFSPKDHRQWIYCVLYVGTGKGIAGFGRAVAPSTQEARNEAIREAFSNIIAVDLEQEGPMYPVRINADGARVLLYPARRIIANFRVADILCAFGFQNAGCKINLKASNNPKAPTHTVEGVFEAVKALRSVSEIAASRGKVPHSLVYNIYPYLEEMRRRKGMMAMHPPGKDGIFMPNRVVDNRMPDHLKKGYYDDVYWKDFFAGSKEQLNEPKMGLRGDELRAQLEESQGRTAKRSNRRTLDDVLRRLGKTSRDLGALQVVNPRLDAKLPTHMKRNYLLH", "soluble on expression in E. coli": "not soluble"},
      {"sequence": "GAKLNRKLRQDSTDRYKTKLYLWRNLGGLIPEDMAISVTESITADWKQYNDMMSKVRNETLDILKTNKVATEDYIGYIAFAEELAHQVWKNKNSSPDPNTANEASKTDLESKYSDVYGLDVTVLDAIYNAVIPIIMGGGS", "soluble on expression in E. coli": "soluble"},
      {"sequence": "MSLGEVCEIMQAYGGVSIVNALPSWYGSSMAINLKVKVEIREGKRVYSQESELIKTILNYFKEKYSIPDIEVDIESELPQKSGLKSSSAVSVALIAEIAKQYDLRNINPPILSAILSLKAGVSYTGALDDAVASYCGGIAFTYNKMFRIVKLENLEDNLSILILAKGGRQKPVNLNELRKYSHVFEEIFKIALKDYLTAMKMNGILIANILGYSLEPIEIALKKGALAAGISGNGPSYFAVSKNGEEGPIYESLKKFGDVIIVRPVSLDCKDLSIKEGHHHHHH", "soluble on expression in E. coli": "not soluble"},
      {"sequence": "MGSDKIHHHHHHMRRLLTGCLLSSARPLKSRLPLLMSSSLPSSAGKKPKQATLARFFTSMKNKPTEGTPSPKKSSKHMLEDRMDNVSGEEEYATKKLKQTAVTHTVAAPSSMGSNFSSIPSSAPSSGVADSPQQSQRLVGEVEDALSSNNNDHYSSNIPYSEVCEVFNKIEAISSRLEIIRICSDFFIKIMKQSSKNLIPTTYLFINRLGPDYEAGLELGLGENLLMKTISETCGKSMSQIKLKYKDIGDLGEIAMGARNVQPTMFKPKPLTVGEVFKNLRAIAKTQGKDSQLKKMKLIKRMLTACKGIEAKFLIRSLESKLRIGLAEKTVLISLSKALLLHDENREDSPDKDVPMDVLESAQQKIRDAFCQVPNYEIVINSCLEHGIMNLDKYCTLRPGIPLKPMLAKPTKAINEVLDRFQGETFTSEYKYDGERAQVHLLNDGTMRIYSRNGENMTERYPEINITDFIQDLDTTKNLILDCEAVAWDKDQGKILPFQVLSTRKRKDVELNDVKVKVCLFAFDILCYNDERLINKSLKERREYLTKVTKVVPGEFQYATQITTNNLDELQKFLDESVNHSCEGLMVKMLEGPESHYEPSKRSRNWLKLKKDYLEGVGDSLDLCVLGAYYGRGKRTGTYGGFLLGCYNQDTGEFETCCKIGTGFSDEMLQLLHDRLTPTIIDGPKATFVFDSSAEPDVWFEPTTLFEVLTADLSLSPIYKAGSATFDKGVSLRFPRFLRIREDKGVEDATSSDQIVELYENQSHMQN", "soluble on expression in E. coli": "not soluble"},
      {"sequence": "MGHHHHHHSHMPKSQVKRQEVISELLVTEAAHVRMLRVLHDLFFQPMAECLFFPLEELQNIFPSLDELIEVHSLFLDRLMKRRQESGYLIEEIGDVLLARFDGAEGSWFQKISSRFCSRQSFALEQLKAKQRKDPRFCAFVQEAESRPRCRRLQLKDMIPTEMQRLTKYPLLLQSIGQNTEEPTEREKVELAAECCREILHHVNQAVRDMEDL", "soluble on expression in E. coli": "not soluble"},
      {"sequence": "MGSDKIHHHHHHMSLFNLSLVTFEIDHEDCWSKLTSSFPVQVKTIFAKPSKGKDYILGMDEVKTYNRRVFKDFLKSFKKEKSIYEIIQILELDSRRGIYRILFKERYENMIMSIIENYMTLYIKDLIKEGNERLLLIMPSSDVTMLKRDLESIGKIHYFNAKLVNFNDFVPTFFDFSEQERNAVLHAIRLGYYEYPRRINLEELGKIMGISKPTLEEYLRKAEKKIMSKIFREFYQQDLLFHSPDY", "soluble on expression in E. coli": "not soluble"},
      {"sequence": "CPDRWMKYGNHCYYFSVEEKDWNSSLEFCLARDSHLLVITDNQEMSLLQVFLSEAFSWIGLRNNSGWRWEDGSPLNFSRISSNSFVQTCGAINKNGLQASSCEVPLHWVCKK", "soluble on expression in E. coli": "soluble"},
      {"sequence": "MGHHHHHHSHLKDNRVVTMEVEARNLDKKDFLGKSDPFLEFFRQGDGKWHLVYRSEVIKNNLNPTWKRFSVPVQHFCGGNPSTPIQVQCSDYDSDGSHDLIGTFHTSLAQLQAVP", "soluble on expression in E. coli": "not soluble"},
      {"sequence": "MGSSHHHHHHSSGLVPRGSHMASMAGLGHPAAFGRATHAVVRALPESLGQHALRSAKGEEVDVARAERQHQLYVGVLGSKLGLQVVELPADESLPDCVFVEDVAVVCEETALITRPGAPSRRKEVDMMKEALEKLQLNIVEMKDENATLDGGDVLFTGREFFVGLSKRTNQRGAEILADTFKDYAVSTVPVADGLHLKSFCSMAGPNLIAIGSSESAQKALKIMQQMSDHRYDKLTVPDDIAANCIYLNIPNKGHVLLHRTPEEYPESAKVYEKLKDHMLIPVSMSELEKVDGLLTCCSVLINKKVDS", "soluble on expression in E. coli": "soluble"},
      {"sequence": "MFKKEKGGWFYMAGLKVEWNDWCPGCGNFGILSAEQQAIQELGLDPKKVVLVSGIGCSGKIPHFIRLPASGVHTLHGRALTFAIGIKLANPSLEVIVNGGDGDQLGIGVGHFVSAGRRNVDLTVIVHNNGVYGLTKGQASPTLKLGVKTKSLPKPNINSDINPIALAISSGYTFVARGYAYDVKHLKEIIKKAIKHKGLAMIDVLQPCPTYNDIHTKEYYDKRVYKLDEDPSWDPIVKKPEEMDDKMSKAILKSMEWGDRIPIGIFYQNELVSTYEQRIAERSPSYLDNPPAHDVIEFEGKPTTDVEDILKERRVT", "soluble on expression in E. coli": "not soluble"},
      {"sequence": "MKFKLFLGSSFFGVATLLIACGTGRFDQIDDGKIKLAVVTSPSAASSLQTLLDQYNNTKAPADYPVEVVSLDSTGSYTKGKFDTQKRLAAKDKNNFYN", "soluble on expression in E. coli": "not soluble"},
      {"sequence": "THRAFNPKTLYIDASTSALKYSQGSTVYFRLPLDDIVRVQIQKESFSSQSLMIYTVNDSYQVPNSDNFDSLQLKYLMKKLEKRLDDQRR", "soluble on expression in E. coli": "not soluble"},
      {"sequence": "MLQKTKGIVLHTLKYNDTSIIVDMYTELSGRTSFLVPVPRSRKAAVKSVLFQPLSFIEFEADFRPNATLYRVKEAKSFYPFTSIPYDPYKSSMALFLAEFLYRAVREEAENRPLFAYLQHSVIWLDECREGFANFHLVFLMRLSRFLGLYPNLEDYHTGDYFDLLNACFTSTRPQLHSSYINPEEAGRLRQLMRMNYETMHLFGMSRAERTRCLTIMNDYYRLHLPDFPALKSLDVLKELFD", "soluble on expression in E. coli": "not soluble"}
    ]}
  ]
}
